To fix the notation:
B1: Nb8 (VHH)
VHH: AVQLQASGGGFVQPGGSLRLSCAASGILGTNTWMGWFRQAPGKEREFVSAINYWTEPEYYADSVKGRFTISRDNSKNTVYLQMNSLRAEDTATYYCAQQNMDLNFDVFAWEYWGQGTQVTVSS
B2: Nb24 (VHH)
VHH: AVQLQASGGGFVQPGGSLRLSCAASGHWPWTGFMGWFRQAPGKEREFVSAIVEYGWPTYYADSVKGRFTISRDNSKNTVYLQMNSLRAEDTATYYCAIAGLIAPEFEQMPVYWGQGTQVTVSS
B3: Nb26 (VHH)
VHH: AVQLQASGGGFVQPGGSLRLSCAASGNYYPFTFMGWFRQAPGKEREFVSAIVTDYNKNYYADSVKGRFTISRDNSKNTVYLQMNSLRAEDTATYYCAYQDHSLIVESSGHMYWGQGTQVTVSS

In the assay the target is SARS-CoV-2 Omicron BA.1 Spike receptor-binding domain (SARS-CoV-2 Omicron BA.1, strain, biotin on the Avi tag (for phage screening and BLI); not biotinylated for crystallisation).
For the molecule B1, the binding result is given as “binds”.

As for B2, the binding result is listed as “binds”.

Regarding B3, the binding result is reported as “binds”.
